Data set [1] addresses AP-endonuclease 1 (human) (UniProt P27695). Nature of the data set: SPR; Biacore X-100; APE1 amine-coupled on a CM5 chip, 25 °C; LIG1 0-1.6 µM injected as analyte in 20 mM HEPES pH 7.4, 150 mM NaCl, 3 mM EDTA, 0.005% Surfactant P20; 1:1 (Langmuir) fit. On the technique in general: Surface plasmon resonance follows binding to a sensor surface in real time, without labels.
Data set [2] has as its target T1, LIG1 EE/AA (C-terminal, Δ261) (Homo sapiens, UniProt P18858 262-919, E346A;E592A). The experiment in a line: X-ray crystallography (2.8 Å); AMP covalently on K568 (LIG1-AMP, step 1); no Mg2+; Crystallization conditions not in the material; LIG1 final purification buffer 20 mM Tris-HCl pH 7.0, 200 mM NaCl, 1 mM DTT; storage 25 mM Tris-HCl pH 7.0, 200. The following applies: protein: recombinant; nicked duplex: 11-mer upstream + 7-mer 5'-P downstream on 18-mer template; blunt ends; A:C wobble mismatch at nick 3'-end.

The target of data set [3] is T1, LIG1 EE/AA (C-terminal, Δ261). The experiment in a line: X-ray crystallography (2.9 Å); AMP as DNA-AMP (step 2); no Mg2+; Crystallization conditions not in the material; LIG1 final purification buffer 20 mM Tris-HCl pH 7.0, 200 mM NaCl, 1 mM DTT; storage 25 mM Tris-HCl pH 7.0, 200. The following applies: protein: recombinant; nicked duplex: 11-mer upstream + 7-mer 5'-P downstream on 18-mer template; blunt ends; A:T at nick 3'-end.

For data set [4] the target is unchanged. Nature of the data set: X-ray crystallography (3.0 Å); AMP as DNA-AMP (step 2); no Mg2+; Crystallization conditions not in the material; LIG1 final purification buffer 20 mM Tris-HCl pH 7.0, 200 mM NaCl, 1 mM DTT; storage 25 mM Tris-HCl pH 7.0, 200. The following applies: protein: recombinant; nicked duplex: 11-mer upstream + 7-mer 5'-P downstream on 18-mer template; blunt ends; G:T wobble mismatch at nick 3'-end.

T1 sequence (P18858 262-919 E346A/E592A): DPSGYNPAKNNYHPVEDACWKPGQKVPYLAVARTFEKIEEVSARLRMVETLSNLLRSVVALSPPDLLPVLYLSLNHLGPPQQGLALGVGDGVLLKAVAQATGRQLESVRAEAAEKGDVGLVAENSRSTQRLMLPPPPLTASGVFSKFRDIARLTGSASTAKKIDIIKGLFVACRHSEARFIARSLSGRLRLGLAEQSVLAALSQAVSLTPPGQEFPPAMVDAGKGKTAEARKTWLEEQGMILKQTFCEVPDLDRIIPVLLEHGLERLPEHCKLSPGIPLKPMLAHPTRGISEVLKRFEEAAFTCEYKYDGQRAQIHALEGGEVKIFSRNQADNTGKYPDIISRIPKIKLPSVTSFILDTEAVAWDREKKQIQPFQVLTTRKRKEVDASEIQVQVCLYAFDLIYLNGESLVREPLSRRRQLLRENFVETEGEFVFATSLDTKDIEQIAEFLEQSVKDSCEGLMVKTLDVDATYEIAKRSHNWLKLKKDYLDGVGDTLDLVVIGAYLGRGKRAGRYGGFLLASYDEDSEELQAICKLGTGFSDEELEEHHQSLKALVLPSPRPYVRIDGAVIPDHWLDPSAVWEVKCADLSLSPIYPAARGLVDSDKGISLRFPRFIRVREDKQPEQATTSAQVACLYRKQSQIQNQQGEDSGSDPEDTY
Sequence of AP-endonuclease 1 (human) (P27695 whole entry): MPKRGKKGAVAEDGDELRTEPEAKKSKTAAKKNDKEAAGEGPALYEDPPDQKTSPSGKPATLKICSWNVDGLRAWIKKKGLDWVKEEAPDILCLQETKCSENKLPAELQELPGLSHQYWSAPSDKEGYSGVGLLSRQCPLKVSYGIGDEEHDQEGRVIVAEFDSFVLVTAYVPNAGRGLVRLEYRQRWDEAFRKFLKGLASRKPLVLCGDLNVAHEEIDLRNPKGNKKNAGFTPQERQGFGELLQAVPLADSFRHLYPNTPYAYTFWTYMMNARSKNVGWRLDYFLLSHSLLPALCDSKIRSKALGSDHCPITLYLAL

By Kd is commonly meant the constant that tells how readily two partners part at equilibrium. A higher Kd goes with a looser complex. On to “DNA ligase I (from UniProt P18858 1-919) (enzyme)”, for which the Kd in data set [1] worked out at 117 nM.

B1: nick DNA 3'-A:C (dsDNA)
DNA 1: GCTGATGCGTA
DNA 2: GTCGGAC
DNA 3: GTCCGACCACGCATCAGC
modifications: 5'-phosphate on downstream strand (GTCGGAC), not adenylated
For the molecule B1, in data set [2], the binding result was “binds”.

B2: nick DNA 3'-A:T (dsDNA)
DNA 1: GCTGATGCGTA
DNA 2: GTCGGAC
DNA 3: GTCCGACTACGCATCAGC
modifications: 5'-phosphate on downstream strand (GTCGGAC); adenylated (5'-AMP) in the crystal
For the molecule B2, the binding result in data set [3] is reported as “binds”.

B3: nick DNA 3'-G:T (dsDNA)
DNA 1: GCTGATGCGTG
DNA 2: GTCGGAC
DNA 3: GTCCGACTACGCATCAGC
modifications: 5'-phosphate on downstream strand (GTCGGAC); adenylated (5'-AMP) in the crystal
Take B3: the binding result in data set [4] is given as “binds”.

For the origin of these results see publication PMC9256674, “Structures of LIG1 that engage with mutagenic mismatches inserted by polβ in base excision repair”.
